Measurements as given in paper PMC12834914, “The biochemical dynamics of the glycogen phosphatase laforin directly impact brain metabolism” (The Journal of Biological Chemistry, 2025).
Values belong to the binder of their own block, whether it stands above or below them.

Target: T1, laforin C266S (LexA fusion) (human, UniProt O95278 1-331, C266S)
T1 construct: laforin, glycogen phosphatase encoded by EPM2A, catalytic cysteine mutated to serine; in mouse laforin the same change is C265S; also called LCS; laforin C/S; source: yeast two-hybrid fusion (S. cerevisiae, pEG202)
T1 sequence (looked up): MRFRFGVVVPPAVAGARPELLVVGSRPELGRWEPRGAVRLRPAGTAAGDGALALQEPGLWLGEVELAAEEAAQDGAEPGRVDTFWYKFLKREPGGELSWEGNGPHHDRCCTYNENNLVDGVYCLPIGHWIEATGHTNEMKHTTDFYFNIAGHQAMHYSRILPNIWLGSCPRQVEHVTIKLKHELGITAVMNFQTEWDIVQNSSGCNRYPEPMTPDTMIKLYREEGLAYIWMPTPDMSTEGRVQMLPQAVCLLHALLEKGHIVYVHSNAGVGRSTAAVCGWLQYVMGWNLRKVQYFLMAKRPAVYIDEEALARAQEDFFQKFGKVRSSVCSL
Experiment: two-hybrid; LexA-laforin (pEG202) with Gal4 activation domain-malin or -PTG (pACT2) in S. cerevisiae; beta-galactosidase activity in yeast cell extract, in Miller Units
Conditions: partners not purified

- fold signal against WT laforin: ~2 fold
B1: malin (Gal4 activation domain fusion) (natural protein, UniProt Q6VVB1 1-395, looked up)
chain: MAAEASESGPALHELMREAEISLLECKVCFEKFGHRQQRRPRNLSCGHVVCLACVAALAHPRTLALECPFCRRACRGCDTSDCLPVLHLIELLGSALRQSPAAHRAAPSAPGALTCHHTFGGWGTLVNPTGLALCPKTGRVVVVHDGRRRVKIFDSGGGCAHQFGEKGDAAQDIRYPVDVTITNDCHVVVTDAGDRSIKVFDFFGQIKLVIGGQFSLPWGVETTPQNGIVVTDAEAGSLHLLDVDFAEGVLRRTERLQAHLCNPRGVAVSWLTGAIAVLEHPLALGTGVCSTRVKVFSSSMQLVGQVDTFGLSLYFPSKITASAVTFDHQGNVIVADTSGPAILCLGKPEEFPVPKPMVTHGLSHPVALTFTKENSLLVLDTASHSIKVYKVDWG
notes: malin; source: yeast two-hybrid fusion (S. cerevisiae, pACT2)

- fold signal against WT laforin: ~2 fold
B2: protein targeting to glycogen (Gal4 activation domain fusion) (natural protein, UniProt Q9UQK1 1-317, looked up)
chain: MSCTRMIQVLDPRPLTSSVMPVDVAMRLCLAHSPPVKSFLGPYDEFQRRHFVNKLKPLKSCLNIKHKAKSQNDWKCSHNQAKKRVVFADSKGLSLTAIHVFSDLPEEPAWDLQFDLLDLNDISSALKHHEEKNLILDFPQPSTDYLSFRSHFQKNFVCLENCSLQERTVTGTVKVKNVSFEKKVQIRITFDSWKNYTDVDCVYMKNVYGGTDSDTFSFAIDLPPVIPTEQKIEFCISYHANGQVFWDNNDGQNYRIVHVQWKPDGVQTQMAPQDCAFHQTSPKTELESTIFGSPRLASGLFPEWQSWGRMENLASYR
notes: protein targeting to glycogen (PTG); also called PTG; source: yeast two-hybrid fusion (S. cerevisiae, pACT2)
